Experimental data from patent publication US20180215825A1 (BEIGENE, published 2018).

How the values were obtained:
[1] = molecular target: T1, human FcγRIIAR131 expressed on HEK293 cells (human, UniProt P12318 34-317); assay: FACS, monomeric mAb on FcγR-expressing HEK293 cells, goat anti-human IgG F(ab')2-Alexa Fluor 488 detection
T1 construct: whole, on cells
T1 sequence (looked up): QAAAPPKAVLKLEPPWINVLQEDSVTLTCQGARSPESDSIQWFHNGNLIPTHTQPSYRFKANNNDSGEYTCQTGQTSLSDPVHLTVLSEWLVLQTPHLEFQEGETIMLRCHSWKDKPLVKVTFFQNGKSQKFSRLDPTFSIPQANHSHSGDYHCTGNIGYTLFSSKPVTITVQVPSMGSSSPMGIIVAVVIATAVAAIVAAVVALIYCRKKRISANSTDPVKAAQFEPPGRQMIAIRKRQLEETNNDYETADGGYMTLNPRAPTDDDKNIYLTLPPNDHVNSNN
Experimental: Bindings of humanized anti-PD-L1 in various IgG1 formats (wt, IgG1mc, IgG1mf, SEQ. NO. 27-29) to FcγRs were also determined by flow cytometry. In brief, a series of stable HEK293 transfectants expressing human FcγRs were established. These stable cell lines expressed FcγRI, FcγRIIAH131, FcγRIIAR131, FcγRIIB, FcγRIIIAF158 or FcγRIIIAV158, respectively. Multi-subunit FcγRs (i.e., FcγRI and FcγRIIIA) were co-expressed with FcRγ subunit.

[2] = molecular target: T2, FcγRIIAH131 extracellular domain, His tag (human, UniProt P12318 34-217); assay: ELISA, FcγR-His coated, preformed immune complex; normalized to hu333-4A2-IgG1wt
T2 construct: extracellular domain
T2 sequence (looked up): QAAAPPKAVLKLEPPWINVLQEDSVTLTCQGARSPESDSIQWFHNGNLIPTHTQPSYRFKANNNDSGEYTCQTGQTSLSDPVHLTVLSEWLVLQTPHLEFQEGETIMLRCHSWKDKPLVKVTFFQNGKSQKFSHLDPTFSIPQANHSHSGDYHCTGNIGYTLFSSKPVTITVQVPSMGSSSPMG
Experimental: (§1) The extracellular domains of FcγRs were fused to C-terminal His tags as described in previous sections. Recombinant proteins were expressed in 293-F cells by transient transfection and purified using Ni-Sepharose column followed by gel filtration column as described. 2-5 μg/mL of FcγRs were coated on Nunc MaxiSorp ELISA plates (Cat. No. 442404, Nunc, Thermo Fisher) except FcγRIIB and FcγRIIIB, Ni-chelate plates were used (Cat. No. 15242, Pierce, Thermo Fisher). After washing and blocking of the wells, a preformed immune-complex was added to each well and incubated at room temperature for 1-2 hours. […] After washing the plate four times, binding signals were detected by chemiluminescence using Immobilon Chemiluminescence Substrate A/B (Cat. No. WBKLS0500, Millipore).

[3] = molecular target: T3, FcγRIIAR131 extracellular domain, His tag (human, UniProt P12318 34-217); assay: as above
T3 construct: extracellular domain
T3 sequence (looked up): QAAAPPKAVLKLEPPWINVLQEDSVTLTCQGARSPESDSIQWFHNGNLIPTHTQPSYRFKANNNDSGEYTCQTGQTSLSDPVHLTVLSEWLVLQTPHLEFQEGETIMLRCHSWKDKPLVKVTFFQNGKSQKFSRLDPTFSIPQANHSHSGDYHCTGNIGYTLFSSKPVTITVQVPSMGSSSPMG
Experimental: as §1

[4] = molecular target: T4, FcγRIIIAV158 extracellular domain, His tag (human, UniProt P08637 17-208); assay: as above
T4 construct: extracellular domain; also called FcγRIIIAV58
T4 sequence (P08637 17-208 F176V limits assumed): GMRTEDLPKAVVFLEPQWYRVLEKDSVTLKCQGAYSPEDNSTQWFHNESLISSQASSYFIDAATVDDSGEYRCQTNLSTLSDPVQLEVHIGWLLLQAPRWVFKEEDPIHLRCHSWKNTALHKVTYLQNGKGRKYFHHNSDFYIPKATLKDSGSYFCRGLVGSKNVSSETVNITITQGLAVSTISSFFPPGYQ
Experimental: as §1

[5] = molecular target: T5, FcγRI extracellular domain, His tag (human, UniProt P12314 16-292); assay: as above
T5 construct: extracellular domain
T5 sequence (P12314 16-292): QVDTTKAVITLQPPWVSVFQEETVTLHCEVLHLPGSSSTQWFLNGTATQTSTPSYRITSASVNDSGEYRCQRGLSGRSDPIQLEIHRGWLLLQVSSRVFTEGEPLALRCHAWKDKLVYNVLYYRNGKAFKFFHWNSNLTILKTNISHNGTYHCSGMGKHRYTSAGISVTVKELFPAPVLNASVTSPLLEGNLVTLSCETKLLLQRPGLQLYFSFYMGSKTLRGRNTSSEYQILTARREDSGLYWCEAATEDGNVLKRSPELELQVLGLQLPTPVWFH
Experimental: as §1

[6] = molecular target: T6, FcγRIIIAF158 extracellular domain, His tag (human, UniProt P08637 17-208); assay: as above
T6 construct: extracellular domain
T6 sequence (P08637 17-208): as the sequence (P08637 17-208 F176V limits assumed) above, with V160F counted along it
Experimental: as §1

[7] = molecular target: T2, FcγRIIAH131 extracellular domain, His …; assay: ELISA, FcγR-His coated, preformed immune complex of the mAb
Experimental: as §1

[8] = molecular target: T3, FcγRIIAR131 extracellular domain, His …; assay: as above
Experimental: as §1

[9] = molecular target: T4, FcγRIIIAV158 extracellular domain, His …; assay: as above
Experimental: as §1

[10] = molecular target: T5, FcγRI extracellular domain, His tag; assay: as above
Experimental: as §1

[11] = molecular target: T6, FcγRIIIAF158 extracellular domain, His …; assay: as above
Experimental: as §1

B1: hu333-4B2-IgG1mc (antibody)
heavy: EVQLVESGGGLVQPGGSLRLSCAVSGFSLTSYGVHWVRQAPGKGLEWVAVIWAGGSTNYADSVKGRFTISKDTSKNTVYLQMNSLRAEDTAVYYCAKPYGTSAMDYWGQGTLVTVSSASTKGPSVFPLAPSSKSTSGGTAALGCLVKDYFPEPVTVSWNSGALTSGVHTFPAVLQSSGLYSLSSVVTVPSSSLGTQTYICNVNHKPSNTKVDKKVEPKSCDKTHTCPPCPAPPAAAPSVFLFPPKPKDTLMISRTPEVTCVVVDVSHEDPEVKFNWYVDGVEVHNAKTKPREEQYNSTYRVVSVLTVLHQDWLNGKEYKCKVSNKALAAPIEKTISKAKGQPREPQVYTLPPSRDELTKNQVSLTCLVKGFYPSDIAVEWESNGQPENNYKTTPPVLDSDGSFFLYSKLTVDKSRWQQGNVFSCSVMHEALHNHYTQKSLSLSPGK
light: DIQMTQSPSSLSASVGDRVTITCKASQDVGIVVAWYQQKPGKAPKLLIYWASIRHTGVPSRFSGSGSGTEFTLTISSLQPDDFATYYCQQYSNYPLYTFGQGTKVEIKRTVAAPSVFIFPPSDEQLKSGTASVVCLLNNFYPREAKVQWKVDNALQSGNSQESVTEQDSKDSTYSLSSTLTLSKADYEKHKVYACEVTHQGLSSPVTKSFNRGEC
B1: no binding [1].

B2: hu333-4A2-IgG1mc (antibody)
heavy: EVQLVESGGGLVQPGGSLRLSCAVSGFSLTSYGVHWVRQAPGKGLEWVAVIWAGGSTNYVDSVKGRFTISKDNAKNTVYLQMNSLRAEDTAVYYCAKPYGTSAMDYWGQGTLVTVSSASTKGPSVFPLAPSSKSTSGGTAALGCLVKDYFPEPVTVSWNSGALTSGVHTFPAVLQSSGLYSLSSVVTVPSSSLGTQTYICNVNHKPSNTKVDKKVEPKSCDKTHTCPPCPAPPAAAPSVFLFPPKPKDTLMISRTPEVTCVVVDVSHEDPEVKFNWYVDGVEVHNAKTKPREEQYNSTYRVVSVLTVLHQDWLNGKEYKCKVSNKALAAPIEKTISKAKGQPREPQVYTLPPSRDELTKNQVSLTCLVKGFYPSDIAVEWESNGQPENNYKTTPPVLDSDGSFFLYSKLTVDKSRWQQGNVFSCSVMHEALHNHYTQKSLSLSPGK
light: DIQMTQSPSSLSASVGDRVTITCKASQDVGIVVAWYQQKPGKAPKLLIYWASIRHTGVPSRFSGSGSGTEFTLTISSLQPDDFATYYCQQYSNYPLYTFGQGTKVEIKRTVAAPSVFIFPPSDEQLKSGTASVVCLLNNFYPREAKVQWKVDNALQSGNSQESVTEQDSKDSTYSLSSTLTLSKADYEKHKVYACEVTHQGLSSPVTKSFNRGEC
B2: no binding [1].

B3: hu333-4B2-IgG1mf (antibody)
heavy: EVQLVESGGGLVQPGGSLRLSCAVSGFSLTSYGVHWVRQAPGKGLEWVAVIWAGGSTNYADSVKGRFTISKDTSKNTVYLQMNSLRAEDTAVYYCAKPYGTSAMDYWGQGTLVTVSSASTKGPSVFPLAPSSKSTSGGTAALGCLVKDYFPEPVTVSWNSGALTSGVHTFPAVLQSSGLYSLSSVVTVPSSSLGTQTYICNVNHKPSNTKVDKKVEPKSCDKTHTCPPCPAPPAAGPSVFLFPPKPKDTLMISRTPEVTCVVVDVSHEDPEVKFNWYVDGVEVHNAKTKPREEQYNSTYRVVSVLTVLHQDWLNGKEYKCKVSNKALAAPIEKTISKAKGQPREPQVYTLPPSRDELTKNQVSLTCLVKGFYPSDIAVEWESNGQPENNYKTTPPVLDSDGSFFLYSKLTVDKSRWQQGNVFSCSVMHEALHNHYTQKSLSLSPGK
light: DIQMTQSPSSLSASVGDRVTITCKASQDVGIVVAWYQQKPGKAPKLLIYWASIRHTGVPSRFSGSGSGTEFTLTISSLQPDDFATYYCQQYSNYPLYTFGQGTKVEIKRTVAAPSVFIFPPSDEQLKSGTASVVCLLNNFYPREAKVQWKVDNALQSGNSQESVTEQDSKDSTYSLSSTLTLSKADYEKHKVYACEVTHQGLSSPVTKSFNRGEC
B3: no binding [1].

B4: hu333-4A2-IgG1wt (antibody)
heavy: not shown
VL: DIQMTQSPSSLSASVGDRVTITCKASQDVGIVVAWYQQKPGKAPKLLIYWASIRHTGVPSRFSGSGSGTEFTLTISSLQPDDFATYYCQQYSNYPLYTFGQGTKVEIK
notes: light chain constant region (kappa) not tied to an entry for this form
B4 gave a Relative binding [2] of 100%, a Relative binding [3] of 100% and a Relative binding [4] of 100%. The Relative binding [5] was 100%, the Relative binding [6] was 100% and the Chemiluminescence [7] was 54600. It also gave a Chemiluminescence [8] of 50200, a Chemiluminescence [9] of 57800 and a Chemiluminescence [10] of 42700. For the same binder, the Chemiluminescence [11] was 36400.
